“And” between values parts separate entries of the source, which are not always exact repeats. Equal values may be shown once. Non-standard residues stand in square brackets, D forms with d. No end group written: not given here. NMeI = CC[C@H](C)[C@H](NC)C(=O)O; hArg = N=C(N)NCCCC[C@H](N)C(=O)O; Chg = N[C@H](C(=O)O)C1CCCCC1; Phg = N[C@H](C(=O)O)c1ccccc1
B1: WYIRLWH (peptide)
peptide: WYIRLWH
B2: fwrahrr (peptide)
peptide: [dF][dW][dR][dA][dH][dR][dR]
B3: LTIRTWH (peptide)
peptide: LTIRTWH
B4: rqhyhwr (peptide)
peptide: [dR][dQ][dH][dY][dH][dW][dR]
B5: LLIKYAR (peptide)
peptide: LLIKYAR
B6: swrwhhr (peptide)
peptide: [dS][dW][dR][dW][dH][dH][dR]
B7: LYIRTWH (peptide)
peptide: LYIRTWH
B8: Ile-homoArg-Ile-homoArg-Arg-Trp-Arg (peptide)
peptide: I[hArg]I[hArg]RWR
B9: LYIRHK (peptide)
peptide: LYIRHK
B10: LTIRLTH (peptide)
peptide: LTIRLTH
B11: LR(N-Me)IKYHR (peptide)
peptide: LR[NMeI]KYHR
B12: shwrrhr (peptide)
peptide: [dS][dH][dW][dR][dR][dH][dR]
B13: ywqwrqs (peptide)
peptide: [dY][dW][dQ][dW][dR][dQ][dS]
B14: yqwqyqr (peptide)
peptide: [dY][dQ][dW][dQ][dY][dQ][dR]
B15: TLIIYHR (peptide)
peptide: TLIIYHR
B16: LYIFRHT (peptide)
peptide: LYIFRHT
B17: WYIRLTH (peptide)
peptide: WYIRLTH
B18: WTRILWH (peptide)
peptide: WTRILWH
B19: rwrylrr (peptide)
peptide: [dR][dW][dR][dY][dL][dR][dR]
B20: TYIRYLR (peptide)
peptide: TYIRYLR
B21: WTRIYYH (peptide)
peptide: WTRIYYH
B22: LTIMLWH (peptide)
peptide: LTIMLWH
B23: WTKITLH (peptide)
peptide: WTKITLH
B24: LFIYYQR (peptide)
peptide: LFIYYQR
B25: IQIYRYK (peptide)
peptide: IQIYRYK
B26: IRIRAAR (peptide)
peptide: IRIRAAR
B27: fwrwhaa (peptide)
peptide: [dF][dW][dR][dW][dH][dA][dA]
B28: LLIAYHR (peptide)
peptide: LLIAYHR
B29: rfhyfrk (peptide)
peptide: [dR][dF][dH][dY][dF][dR][dK]
B30: wwrfhwr (peptide)
peptide: [dW][dW][dR][dF][dH][dW][dR]
B31: WTIRYYH (peptide)
peptide: WTIRYYH
B32: LFIFYHR (peptide)
peptide: LFIFYHR
B33: IRVYKYS (peptide)
peptide: IRVYKYS
B34: LTIQLWH (peptide)
peptide: LTIQLWH
B35: YYIRYYK (peptide)
peptide: YYIRYYK
B36: IRFRRYR (peptide)
peptide: IRFRRYR
B37: WRIRRYR (peptide)
peptide: WRIRRYR
B38: WTIMLWH (peptide)
peptide: WTIMLWH
B39: IRIYRYK (peptide)
peptide: IRIYRYK
B40: LTIRTLH (peptide)
peptide: LTIRTLH
B41: ALIKYHR (peptide)
peptide: ALIKYHR
B42: LHIEHR (peptide)
peptide: LHIEHR
B43: rlkwrw (peptide)
peptide: [dR][dL][dK][dW][dR][dW]
B44: IFVYHH (peptide)
peptide: IFVYHH
B45: qlkwlh (peptide)
peptide: [dQ][dL][dK][dW][dL][dH]
B46: WTIKLTH (peptide)
peptide: WTIKLTH
B47: IHIEIK (peptide)
peptide: IHIEIK
B48: WTIRTWH (peptide)
peptide: WTIRTWH
B49: YTYMLWK (peptide)
peptide: YTYMLWK
B50: TRIRFYR (peptide)
peptide: TRIRFYR
B51: farahrr (peptide)
peptide: [dF][dA][dR][dA][dH][dR][dR]
B52: LSIRQH (peptide)
peptide: LSIRQH
B53: klkwlw (peptide)
peptide: [dK][dL][dK][dW][dL][dW]
B54: IRARRYR (peptide)
peptide: IRARRYR
B55: WTRITLE (peptide)
peptide: WTRITLE
B56: ilkwlw (peptide)
peptide: [dI][dL][dK][dW][dL][dW]
B57: YYIRTYH (peptide)
peptide: YYIRTYH
B58: LTRITLE (peptide)
peptide: LTRITLE
B59: LLAKYHR (peptide)
peptide: LLAKYHR
B60: IWIRRWR (peptide)
peptide: IWIRRWR
B61: Chg-Arg-Chg-Arg-Arg-Tyr-Arg (peptide)
peptide: [Chg]R[Chg]RRYR
B62: AYYYRHR (peptide)
peptide: AYYYRHR
B63: shwrhhr (peptide)
peptide: [dS][dH][dW][dR][dH][dH][dR]
B64: rqwyrwq (peptide)
peptide: [dR][dQ][dW][dY][dR][dW][dQ]
B65: qwrwrhr (peptide)
peptide: [dQ][dW][dR][dW][dR][dH][dR]
B66: TYVYRRR (peptide)
peptide: TYVYRRR
B67: TRIYRVK (peptide)
peptide: TRIYRVK
B68: TYIYRQR (peptide)
peptide: TYIYRQR
B69: qvryhkn (peptide)
peptide: [dQ][dV][dR][dY][dH][dK][dN]
B70: Phg-Arg-Phg-Arg-Arg-Tyr-Arg (peptide)
peptide: [Phg]R[Phg]RRYR

Target: T1, Nat1 (LTIITLE) (also: TFA salt)
T1 peptide: LTIITLE
Experiment: cell-based or functional assay

Binder | IC50, Thiofiavin T aggregation assay
B1 | 288 nM
B2 | 293 nM
B3 | 295 nM
B4 | 296 nM
B5 | 301 nM
B6 | 301 nM
B7 | 302 nM
B8 | 49 nM
B9 | 316 nM
B10 | 329 nM
B11 | 334 nM
B12 | 338 nM
B13 | 338 nM
B14 | 354 nM
B15 | 357 nM
B16 | 363 nM
B17 | 369 nM
B18 | 398 nM
B19 | 49 nM
B20 | 412 nM
B21 | 420 nM
B22 | 425 nM
B23 | 427 nM
B24 | 440 nM

Binder | IC50, Thiofiavin T aggregation assay
B25 | 444 nM
B26 | 451 nM
B27 | 458 nM
B28 | 466 nM
B29 | 51 nM
B30 | 472 nM
B31 | 473 nM and 214 nM
B32 | 476 nM
B33 | 480 nM
B34 | 481 nM
B35 | 494 nM
B36 | 496 nM
B37 | 514 nM
B38 | 525 nM
B39 | 60 nM
B40 | 537 nM
B41 | 629 nM
B42 | 657 nM
B43 | 702 nM
B44 | 703 nM
B45 | 716 nM
B46 | 720 nM
B47 | 723 nM
B48 | 784 nM

Binder | IC50, Thiofiavin T aggregation assay
B49 | 824 nM
B50 | 64 nM
B51 | 906 nM
B52 | 945 nM
B53 | 1060 nM
B54 | 1250 nM
B55 | 1340 nM
B56 | 1340 nM
B57 | 1600 nM
B58 | 1680 nM
B59 | 1730 nM
B60 | 1900 nM
B61 | 67 nM
B62 | 2120 nM
B63 | 2270 nM
B64 | 2720 nM
B65 | 3140 nM
B66 | 3660 nM
B67 | 3740 nM
B68 | 5170 nM
B69 | 5700 nM
B70 | 5950 nM

From US20200062804A1 (ADRX, published 2020)
